Assay results: US20200247894A1 (Regeneron, published 2020)

Key:
[1] = biological target: T1, Human IL2Rγ extracellular domain expressed with a C-terminal mouse IgG2a Fc tag (human); test: SPR Biacore 4000, anti-hFc-captured mAb, 25 C
T1 construct: whole entry is the Fc-fused construct; also called hIL-2Rg-mFc
T1 chain: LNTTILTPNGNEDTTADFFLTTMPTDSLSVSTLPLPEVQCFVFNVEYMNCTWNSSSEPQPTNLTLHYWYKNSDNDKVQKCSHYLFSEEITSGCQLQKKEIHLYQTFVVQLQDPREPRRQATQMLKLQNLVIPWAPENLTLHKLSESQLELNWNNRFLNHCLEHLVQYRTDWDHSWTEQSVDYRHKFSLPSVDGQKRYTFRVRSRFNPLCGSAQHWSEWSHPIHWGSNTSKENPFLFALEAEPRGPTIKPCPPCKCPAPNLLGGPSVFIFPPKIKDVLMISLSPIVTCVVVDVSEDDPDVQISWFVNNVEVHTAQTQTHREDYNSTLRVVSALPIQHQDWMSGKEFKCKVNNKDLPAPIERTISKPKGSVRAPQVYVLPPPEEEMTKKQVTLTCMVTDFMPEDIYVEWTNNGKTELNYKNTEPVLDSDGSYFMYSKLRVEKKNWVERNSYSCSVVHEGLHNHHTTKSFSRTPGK
How it was run: (§1)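 Surface plasmon resonance with anti-hFc-captured antibodies in pH 7.4 HEPES-buffered saline containing EDTA and Tween-20; kinetic constants from a 1:1 model.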

[2] = biological target: T2, Mouse IL2Rγ extracellular domain expressed with a C-terminal myc-myc-hexahistidine tag (mouse); test: SPR Biacore 4000, anti-hFc-captured mAb, 25 C
T2 construct: whole entry is the tagged construct; also called mIL-2Rg-MMH
T2 chain: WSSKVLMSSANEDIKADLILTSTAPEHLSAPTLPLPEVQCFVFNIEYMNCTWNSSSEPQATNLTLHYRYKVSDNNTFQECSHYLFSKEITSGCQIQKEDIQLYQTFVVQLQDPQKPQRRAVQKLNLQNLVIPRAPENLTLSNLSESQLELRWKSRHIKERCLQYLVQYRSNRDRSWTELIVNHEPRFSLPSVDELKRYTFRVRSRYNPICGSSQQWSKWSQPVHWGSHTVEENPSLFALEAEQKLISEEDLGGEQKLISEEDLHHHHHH
How it was run: as §1

[3] = biological target: T3, Rat IL2Rγ extracellular domain expressed with a C-terminal myc-myc-hexahistidine tag (rat); test: SPR Biacore 4000, anti-hFc-captured mAb, 25 C
T3 construct: whole entry is the tagged construct; also called rIL-2Rg-MMH; rat IL-2Rg-MMH
T3 chain: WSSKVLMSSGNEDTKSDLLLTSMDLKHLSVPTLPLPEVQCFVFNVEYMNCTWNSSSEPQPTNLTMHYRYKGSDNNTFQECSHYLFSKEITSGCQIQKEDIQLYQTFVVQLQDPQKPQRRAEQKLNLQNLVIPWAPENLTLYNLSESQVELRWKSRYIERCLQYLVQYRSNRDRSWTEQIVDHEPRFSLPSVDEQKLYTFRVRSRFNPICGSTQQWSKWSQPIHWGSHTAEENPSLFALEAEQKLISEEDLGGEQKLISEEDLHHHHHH
How it was run: as §1

[4] = biological target: T4, Macaca fascicularis IL2Rγ extracellular domain expressed with a C-terminal myc-myc-hexahistidine tag (Macaca fascicularis); test: SPR Biacore 4000, anti-hFc-captured mAb, 37 C
T4 construct: whole entry is the tagged construct; also called mfIL-2Rg-MMH
T4 chain: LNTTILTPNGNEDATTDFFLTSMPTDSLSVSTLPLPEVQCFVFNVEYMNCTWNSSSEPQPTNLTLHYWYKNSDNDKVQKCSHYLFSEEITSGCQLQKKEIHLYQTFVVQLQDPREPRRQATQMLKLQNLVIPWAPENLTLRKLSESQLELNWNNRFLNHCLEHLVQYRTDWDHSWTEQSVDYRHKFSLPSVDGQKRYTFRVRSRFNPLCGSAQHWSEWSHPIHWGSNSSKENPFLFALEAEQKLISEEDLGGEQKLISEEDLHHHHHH
How it was run: as §1

[5] = biological target: T1, Human IL2Rγ extracellular domain …; test: SPR Biacore 4000, anti-hFc-captured mAb, 37 C
How it was run: as §1

[6] = biological target: T2, Mouse IL2Rγ extracellular domain …; test: SPR Biacore 4000, anti-hFc-captured mAb, 37 C
How it was run: as §1

[7] = biological target: T3, Rat IL2Rγ extracellular domain …; test: SPR Biacore 4000, anti-hFc-captured mAb, 37 C
How it was run: as §1

[8] = biological target: T1, Human IL2Rγ extracellular domain …; test: SPR Biacore 4000, anti-hFc-captured mAb, 37 C; computed with kd fixed at 1.00E-05
Procedure: (§2) Equilibrium dissociation constants (KD values) for IL-2Rγ binding to purified anti-IL2Rγ monoclonal antibodies were determined using a Biacore 4000 instrument equipped with a real-time surface plasmon resonance biosensor. All binding studies were performed in 10 mM HEPES, 150 mM NaCl, 3 mM EDTA, and 0.05% v/v Surfactant Tween-20, pH 7.4 (HBS-ET) running buffer at 25° C. and 37° C. The Biacore sensor surface was first derivatized by amine coupling with a monoclonal mouse anti-human Fc antibody (GE, # BR-1008-39) to capture anti-IL2Rγ monoclonal antibodies.
(§3) The dissociation of monoclonal antibody bound IL2Rγ reagents were monitored for 8-10 minutes in HBS-ET running buffer. Kinetic association (kₐ) and dissociation (kd) rate constants were determined by fitting the real-time sensorgrams to a 1:1 binding model using Scrubber 2.0c curve fitting software. Binding dissociation equilibrium constants (KD) and dissociative half-lives (t_{1/2}) were calculated from the kinetic rate constants as: […]

[9] = biological target: T1, Human IL2Rγ extracellular domain …; test: SPR Biacore 4000, anti-hFc-captured mAb, 37 C; no dissociation observed, kd manually fixed at 1.00E-05
[10] = biological target: T5, D2 domain of human IL2Rγ extracellular domain expressed with a C-terminal myc-myc-hexahistidine tag (human); test: SPR, mAb captured on anti-hFc, 25 C
T5 construct: also called human IL2Rγ domain 2
T5 chain: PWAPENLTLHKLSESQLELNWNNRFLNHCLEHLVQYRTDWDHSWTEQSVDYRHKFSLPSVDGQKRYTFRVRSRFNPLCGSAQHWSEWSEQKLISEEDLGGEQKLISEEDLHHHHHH
Procedure: as §2

[11] = biological target: T5, D2 domain of human IL2Rγ extracellular …; test: SPR, mAb captured on anti-hFc, 37 C
Procedure: as §2

[12] = biological target: T6, D1 domain of human IL-2Rγ extracellular domain expressed with a C-terminal myc-myc-hexahistidine tag (human); test: SPR, mAb captured on anti-hFc, 25 C; 25 C
T6 construct: also called human IL2Rγ domain 1
T6 chain: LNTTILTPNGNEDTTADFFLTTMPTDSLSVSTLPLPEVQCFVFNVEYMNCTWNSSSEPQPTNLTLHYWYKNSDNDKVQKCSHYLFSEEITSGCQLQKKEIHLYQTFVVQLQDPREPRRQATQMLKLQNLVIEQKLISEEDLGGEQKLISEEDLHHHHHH
Procedure: as §2, §3

B1: H4H12874P (antibody, human IgG4 S228P, kappa, V domains shown)
VH: QVQLVESGGGVVQPGRSLRLSCAASGFNFRNFGMHWVRQAPGKGLEWVAGILYDGSSKYYADSVKDRFTISRDNSKNTLFLQMNSLRAEDTAMYYCAKEEDTAMVPFDSWGPGTLVTVSS
VL: DIQLTQSPSFLSASVGDRVTITCWASQGISSYLAWYQQKPGKAPTLLIYAASTLQSGVPSRFSGSGSGTEFTLTISSLQPEDFASYYCQQLKSYPLTFGGGTKVEIKR
notes: fully human anti-IL2Rgamma mAb, human IgG4 Fc
[1]
  50 nM Ag Bound: 15 RU
  Kd: 4.18 nM
  koff: 8.35e-05 s⁻¹
  kon: 20000 M⁻¹ s⁻¹
  t1/2: 2.3 h
[2]
  100 nM Ag Bound: 1 RU
  binding result: no binding (tested: 100 nM)
[3]
  100 nM Ag Bound: 1 RU
  binding result: no binding (tested: 100 nM)
[4]
  100 nM Ag Bound: 43 RU
  Kd: 12.4 nM
  koff: 0.00116 s⁻¹
  kon: 93300 M⁻¹ s⁻¹
  t1/2: 0.167 h
[5]
  50 nM Ag Bound: 14 RU
  kon: 33000 M⁻¹ s⁻¹
[6]
  100 nM Ag Bound: 0 RU
[7]
  100 nM Ag Bound: 3 RU
[8]
  Kd: ≤ 0.303 nM
  t1/2: ≥ 19.2 h
[9]
  koff: ≤ 1e-05 s⁻¹

B2: H4H12889P (antibody, human IgG4 S228P, kappa, V domains shown)
VH: EVQLVESGGGLVQPGGSLRLSCAASGFIFSSYEMHWVRQAPGKGLEWISYISSSGTTIYYADSVKGRFTISRDNAKNSLYLHMNSLRAEDTAVYYCTRARITGTFDVFDIWGQGTMVTVSS
VL: DIQMTQSPSSLSASVGDRVTITCRASQSISSYLNWYQQKPGKAPKLLIFAASNLQSGVPSRFSGSRSGTDFTLTISSLQPEDFATYYCQQNYNIPYTFGQGTKLEIKR
notes: fully human anti-IL2Rgamma mAb, human IgG4 Fc; also called REGN7257
[1]
  50 nM Ag Bound: 69 RU
  Kd: 0.0447 nM
  koff: 1.55e-05 s⁻¹
  kon: 347000 M⁻¹ s⁻¹
  t1/2: 12.4 h
[2]
  100 nM Ag Bound: 1 RU
  binding result: no binding (tested: 100 nM)
[3]
  100 nM Ag Bound: 1 RU
  binding result: no binding (tested: 100 nM)
[4]
  100 nM Ag Bound: 29 RU
  Kd: 4.63 nM
  koff: 0.00171 s⁻¹
  kon: 369000 M⁻¹ s⁻¹
  t1/2: 0.117 h
[5]
  50 nM Ag Bound: 39 RU
  kon: 238000 M⁻¹ s⁻¹
[6]
  100 nM Ag Bound: 0 RU
[7]
  100 nM Ag Bound: 2 RU
[8]
  Kd: ≤ 0.042 nM
  t1/2: ≥ 19.2 h
[9]
  koff: ≤ 1e-05 s⁻¹

B3: H4H12922P2 (antibody, human IgG4 S228P, kappa, V domains shown)
VH: QVQLVESGGGVVKPGGSLRLSCAASGFTFSNSGIHWVRQAPGKGLEWVALISYAGSNKYYADSVKGRFTISRDNSKNTLSLQMNSLRAEDTAVYYCAKEVWTGTYDSFDMWGRGTMVTVSS
VL: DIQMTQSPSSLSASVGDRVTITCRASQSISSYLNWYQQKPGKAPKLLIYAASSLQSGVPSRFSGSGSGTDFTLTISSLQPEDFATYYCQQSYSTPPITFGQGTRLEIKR
notes: fully human anti-IL2Rgamma mAb, human IgG4 Fc; also called REGN7256
[1]
  50 nM Ag Bound: 82 RU
  Kd: 0.0564 nM
  koff: 1.75e-05 s⁻¹
  kon: 310000 M⁻¹ s⁻¹
  t1/2: 11 h
[2]
  100 nM Ag Bound: 2 RU
  binding result: no binding (tested: 100 nM)
[3]
  100 nM Ag Bound: 3 RU
  binding result: no binding (tested: 100 nM)
[4]
  100 nM Ag Bound: 44 RU
  Kd: 4.18 nM
  koff: 0.00129 s⁻¹
  kon: 308000 M⁻¹ s⁻¹
  t1/2: 0.15 h
[5]
  50 nM Ag Bound: 47 RU
  kon: 223000 M⁻¹ s⁻¹
[6]
  100 nM Ag Bound: 2 RU
[7]
  100 nM Ag Bound: 5 RU
[8]
  Kd: ≤ 0.0448 nM
  t1/2: ≥ 19.2 h
[9]
  koff: ≤ 1e-05 s⁻¹

B4: H4H12926P2 (antibody, human IgG4 S228P, kappa, V domains shown)
VH: QVQLQQSGPGLVKPSQTLSLTCAISGDSVSSNIAAWNWIRLSPSRGLEWLGRTFFRSTWFYDYSLSVKGRITINPDTSKNQFSLHLNSVTPEDAAVYYCARTGRRWSLDYWGQGTLVTVSS
VL: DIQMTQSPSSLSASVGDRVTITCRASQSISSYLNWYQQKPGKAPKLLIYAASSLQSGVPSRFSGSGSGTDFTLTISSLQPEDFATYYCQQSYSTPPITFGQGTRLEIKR
notes: human IgG4
[10]
  100 nM Ag Bound: 0 RU
  binding result: no binding (tested: 100 nM)
[11]
  100 nM Ag Bound: 0 RU
[12]
  Kd: 195 nM
  koff: 0.0273 s⁻¹
  kon: 140000 M⁻¹ s⁻¹
  t½: 24 s
